Results from the supplement of paper PMC12783771.
± gives the standard deviation of the averaged measurements.

B1: library; numbered along this chain (parent)
chain: MNIQIGELAKRTACPVVTIRFYEQEGLLPPPGRSRGNFRLYGEEHVERLQFIRHCRSLDMPLSDVRTLLSYRKRPDQDCGEVNMLLDEHIRQVESRIGALLELKHHLVELREACSGARPAQSCGILQGLSDCVCDTRGTTAHPSD

How the values were obtained:
[1] = variants of: B1; assay: sfGFP reporter fluorescence (15 h) (µM FITC); higher = higher leak; details: library round: Round 0; ligand: none
Outline: (§1)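 PCR-made linear PbrR templates (Echo-normalized to 5 nM) were expressed in BL21 Star (DE3) extract (PANOx-SP) with pPbrR-sfGFP reporter plasmid and 30 μg/mL GamS. Reactions were 1 μL, Echo-assembled, with 1 µM lead chloride, 30 µM zinc acetate or no metal, incubated 15 hr at 30 °C. Endpoint sfGFP fluorescence (485/528 nm, Synergy Neo2) was converted to µM FITC via standard curves in 50 mM sodium borate pH 8.5. Up to three biological replicates.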

[2] = variants of: B1; assay: sfGFP reporter fluorescence (15 h) (µM FITC); higher = stronger transcriptional activation; details: library round: Round 0
Outline: as §1

Row | Variant | sfGFP reporter fluorescence [1] | sfGFP reporter fluorescence ([2]; ligand: 1 µM Pb) | sfGFP reporter fluorescence ([2]; ligand: 30 µM Zn)
1 | Y22V | 0.06359 ± 0.00026 | 0.0614 ± 0.00078 | 0.0641 ± 0.0021
2 | Y22N | 0.0619 ± 0.0031 | 0.0607 ± 0.0029 | 0.0614 ± 0.0023
3 | D64K L107C | 3.83 ± 0.36 | 3.75 ± 0.15 | 4.11 ± 0.21
4 | K104Y | 0.059 ± 0.0083 | 0.113 ± 0.028 | 1.09 ± 0.13
5 | K104M | 0.059 ± 0.0088 | 0.111 ± 0.035 | 1.13 ± 0.15
6 | D135K | 0.0618 ± 0.0018 | 0.085 ± 0.0015 | 0.962 ± 0.052
7 | D135F | 0.0718 ± 0.001 | 0.138 ± 0.0065 | 1.49 ± 0.28
8 | M60L D64K L107C G128I | 5.03 ± 0.22 | 4.57 ± 0.23 | 3.85 ± 0.9
9 | M60L D64K K104V | 2.02 ± 0.17 | 4.2 ± 0.4 | 4.63 ± 0.11
10 | L129K | 0.0581 ± 0.00078 | 0.059 ± 0.0021 | 0.05662 ± 0.00026
11 | L129T | 0.05827 ± 0.00052 | 0.0581 ± 0.00078 | 0.055 ± 0.0021
12 | L129S | 0.0577 ± 0.0013 | 0.05901 ± 0.00052 | 0.0563 ± 0.00078
13 | R20G | 0.05864 ± 0.00052 | 0.0563 ± 0.0018 | 0.0625 ± 0.0034
14 | R20K | 0.0623 ± 0.001 | 0.0625 ± 0.0018 | 0.064 ± 0.00078
15 | R20H | 0.0618 ± 0.0044 | 0.0647 ± 0.0018 | 0.1048 ± 0.001
16 | R20P | 0.06285 ± 0.00026 | 0.05974 ± 0.00052 | 0.0673 ± 0.0013
17 | E112W | 0.0579 ± 0.0015 | 0.0627 ± 0.001 | 0.152 ± 0.014
18 | P61N D64K K104V G128I | 0.32 ± 0.048 | 0.989 ± 0.27 | 2.48 ± 0.29
19 | D64K L107C G128I | 4.71 ± 0.58 | 4.78 ± 0.6 | 4.48 ± 0.43
20 | V65A | 0.0629 ± 0.0013 | 0.0678 ± 0.0052 | 0.153 ± 0.036
21 | D64K G128I | 0.371 ± 0.021 | 1.32 ± 0.067 | 4.45 ± 0.14
22 | V108S | 0.0568 ± 0.0026 | 0.0696 | 0.772 ± 0.061
23 | V108G | 0.057 ± 0.00078 | 0.0658 ± 0.0049 | 0.567 ± 0.1

Row | Variant | sfGFP reporter fluorescence [1] | sfGFP reporter fluorescence ([2]; ligand: 1 µM Pb) | sfGFP reporter fluorescence ([2]; ligand: 30 µM Zn)
24 | V108E | 0.0579 ± 0.001 | 0.06652 ± 0.00026 | 0.62 ± 0.11
25 | E43F | 0.05846 ± 0.00026 | 0.0828 ± 0.015 | 0.99 ± 0.18
26 | E43I | 0.05186 ± 0.00026 | 0.0806 ± 0.0093 | 1.11 ± 0.078
27 | E43N | 0.0577 ± 0.006 | 0.0828 ± 0.0036 | 1.21 ± 0.02
28 | E43M | 0.0597 ± 0.0047 | 0.099 ± 0.0047 | 1.33 ± 0.083
29 | L27N | 0.06322 ± 0.00026 | 0.0616 ± 0.0031 | 0.0601
30 | L27I | 0.0596 ± 0.00078 | 0.0803 ± 0.0015 | 0.555 ± 0.033
31 | L27K | 0.064 ± 0.0013 | 0.06084 ± 0.00052 | 0.0614 ± 0.0018
32 | L27W | 0.0616 ± 0.0036 | 0.0623 | 0.0638
33 | L27F | 0.0673 ± 0.0023 | 0.104 ± 0.0029 | 0.493 ± 0.035
34 | P30F | 0.0603 ± 0.0018 | 0.0759 ± 0.001 | 0.489 ± 0.015
35 | P30D | 0.0658 ± 0.0029 | 0.08338 ± 0.00026 | 0.391 ± 0.088
36 | P30Y | 0.0616 ± 0.001 | 0.0771 ± 0.0049 | 0.612 ± 0.013
37 | P30N | 0.0605 ± 0.0031 | 0.0753 ± 0.0049 | 0.628 ± 0.07
38 | P30L | 0.0614 ± 0.00078 | 0.0894 ± 0.0031 | 0.901 ± 0.0029
39 | G128T | 0.0647 ± 0.0018 | 0.0885 ± 0.014 | 1.21 ± 0.22
40 | G128V | 0.0647 ± 0.00078 | 0.131 ± 0.011 | 1.54 ± 0.16
41 | V46H | 0.0557 ± 0.0015 | 0.0738 ± 0.00078 | 0.345 ± 0.039
42 | V46W | 0.0583 ± 0.0021 | 0.0757 ± 0.0034 | 0.429 ± 0.0044
43 | H89L | 0.059 ± 0.0026 | 0.0553 ± 0.0021 | 0.0649 ± 0.0042
44 | H89T | 0.0614 ± 0.00078 | 0.0579 ± 0.0021 | 0.0588 ± 0.0054
45 | C134M | 0.0693 ± 0.001 | 0.09162 ± 0.00052 | 1.28 ± 0.065
46 | C134P | 0.0667 ± 0.00052 | 0.0847 ± 0.011 | 1.54 ± 0.058

Row | Variant | sfGFP reporter fluorescence [1] | sfGFP reporter fluorescence ([2]; ligand: 1 µM Pb) | sfGFP reporter fluorescence ([2]; ligand: 30 µM Zn)
47 | C134A | 0.0652 ± 0.001 | 0.0821 ± 0.0052 | 0.59 ± 0.049
48 | C134W | 0.145 ± 0.0042 | 0.4695 ± 0.0031 | 1.92 ± 0.047
49 | C134Y | 0.072 ± 0.0034 | 0.154 ± 0.012 | 1.49 ± 0.19
50 | I3N | 0.0599 ± 0.0013 | 0.0579 ± 0.0021 | 0.1142 ± 0.00026
51 | I3C | 0.0586 | 0.0737 ± 0.0052 | 0.774 ± 0.011
52 | I3Q | 0.0548 ± 0.0029 | 0.0671 ± 0.0026 | 0.336 ± 0.0075
53 | I3Y | 0.0612 ± 0.0021 | 0.06744 ± 0.00052 | 0.977 ± 0.061
54 | C79E | 0.0588 ± 0.00078 | 0.0596 ± 0.00078 | 0.0548 ± 0.00078
55 | C79N | 0.05919 ± 0.00026 | 0.0566 ± 0.0013 | 0.0557
56 | F21W | 0.0702 ± 0.0013 | 0.124 ± 0.0031 | 0.945 ± 0.029
57 | F21Y | 0.06102 ± 0.00026 | 0.0755 ± 0.0015 | 0.819 ± 0.015
58 | F21Q | 0.0605 | 0.05827 ± 0.00052 | 0.0625 ± 0.00078
59 | F21H | 0.0596 ± 0.0018 | 0.0629 ± 0.0023 | 0.276 ± 0.0091
60 | C114E | 0.05699 ± 0.00026 | 0.0579 ± 0.001 | 0.0533 ± 0.0023
61 | Y71A | 0.05974 ± 0.00052 | 0.0575 | 0.22 ± 0.0036
62 | L126S | 0.0592 ± 0.0018 | 0.0585 ± 0.00078 | 0.05443 ± 0.00026
63 | L126V | 0.0555 ± 0.0013 | 0.0581 ± 0.00078 | 0.0586
64 | L126R | 0.0619 ± 0.0015 | 0.05992 ± 0.00026 | 0.0572 ± 0.0021
65 | G36R | 0.0597 ± 0.0015 | 0.0656 ± 0.0026 | 0.247 ± 0.0088
66 | G36D | 0.0616 | 0.0623 ± 0.0021 | 0.0695 ± 0.0018
67 | G36M | 0.0612 | 0.0667 ± 0.0031 | 0.236 ± 0.028
68 | G36I | 0.05589 ± 0.00026 | 0.0579 ± 0.0015 | 0.117 ± 0.0044
69 | I97H | 0.0564 ± 0.0062 | 0.0596 ± 0.0034 | 0.263 ± 0.0018

Row | Variant | sfGFP reporter fluorescence [1] | sfGFP reporter fluorescence ([2]; ligand: 1 µM Pb) | sfGFP reporter fluorescence ([2]; ligand: 30 µM Zn)
70 | I97A | 0.0663 ± 0.0021 | 0.133 ± 0.0015 | 1.138 ± 0.007
71 | I97L | 0.0596 ± 0.0023 | 0.0797 ± 0.0044 | 0.842 ± 0.014
72 | I97T | 0.0579 ± 0.0042 | 0.0662 ± 0.0034 | 0.579 ± 0.0096
73 | P15E | 0.0718 ± 0.001 | 0.088 ± 0.0021 | 0.4297 ± 0.0023
74 | P15V | 0.0757 ± 0.00078 | 0.07385 ± 0.00026 | 0.212 ± 0.018
75 | P15T | 0.0632 ± 0.00078 | 0.1006 ± 0.00078 | 0.859 ± 0.058
76 | P15N | 0.0629 ± 0.0034 | 0.0859 ± 0.0018 | 0.885 ± 0.022
77 | L107D | 0.0586 ± 0.0021 | 0.0596 ± 0.0018 | 0.0579 ± 0.0026
78 | L107C | 0.491 ± 0.053 | 1.05 ± 0.062 | 2.85 ± 0.46
79 | L107H | 0.05662 ± 0.00026 | 0.0535 ± 0.0021 | 0.0821 ± 0.0015
80 | L107T | 0.0797 ± 0.0054 | 0.282 ± 0.015 | 1.93 ± 0.22
81 | L107I | 0.0579 ± 0.001 | 0.0671 ± 0.0036 | 0.808 ± 0.065
82 | P61H | 0.0658 ± 0.00078 | 0.117 ± 0.0021 | 0.797 ± 0.015
83 | P61F | 0.0608 ± 0.0031 | 0.0651 ± 0.0023 | 0.09382 ± 0.00052
84 | P61K | 0.068 ± 0.00078 | 0.107 ± 0.0031 | 1.6 ± 0.1
85 | P61N | 0.07825 ± 0.00026 | 0.13 ± 0.078 | 1.74 ± 0.049
86 | P61N D64K L107C G128M | 4.78 ± 0.1 | 5.3 ± 0.14 | 4.84 ± 0.18
87 | L110C | 0.05754 ± 0.00052 | 0.0577 ± 0.00078 | 0.0766 ± 0.0042
88 | L110D | 0.0575 ± 0.0015 | 0.0586 | 0.0574 ± 0.00078
89 | L110P | 0.0594 ± 0.0015 | 0.0581 ± 0.0018 | 0.0575 ± 0.0015
